In this experiment the target is human c-type lysozyme purified from human neutrophils (HL) (human) (UniProt P61626).
Chain of UniProt P61626 (P61626 19-148): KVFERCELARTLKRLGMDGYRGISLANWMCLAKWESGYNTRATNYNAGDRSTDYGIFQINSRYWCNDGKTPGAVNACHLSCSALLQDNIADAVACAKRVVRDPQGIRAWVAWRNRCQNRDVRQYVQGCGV

On to “recombinant, mature Neisseria gonorrhoeae Adhesin Complex Protein (rACP) (natural protein)”, for which the percent of HL hydrolytic activity restored in the presence of rACP by pooled terminal RO serum (polyclonal) of mice immunized with rACP alone is 19.3%, the percent of HL hydrolytic activity restored in the presence of rACP by pooled terminal RO serum (polyclonal) of mice immunized with rACP+CpG worked out at 59.9%, the percent of HL hydrolytic activity restored in the presence of rACP by pooled terminal SV serum (polyclonal) of mice immunized with rACP alone turned out to be 30.1% and the percent of HL hydrolytic activity restored in the presence of rACP by pooled terminal SV serum (polyclonal) of mice immunized with rACP+CpG came out at 75.2%.
